{"source": "paper PMC12355088", "about": "“Structural analysis of TRIM family PRYSPRY domains and its implications for E3-ligand design” (Journal of Structural Biology: X, 2025)", "target": "the molecule itself", "assay": "SEC; Superdex-75 column, elution compared with marker proteins (BSA, ovalbumin, carbonic anhydrase, ribonuclease A)", "data": [{"protein": "TRIM36 PRYSPRY domain (domain or fragment, human, PRYSPRY domain of human TRIM36, with an additional C-terminal helix; theoretical MW of the dimer 52.4 kDa; Cloned into pNIC-CTH0; also called TRIM36 domain) TPPAPVFSFLFDEKCGYNNEHLLLNLKRDRVESRAGFNLLLAAERIQVGYYTSLDYIIGDTGITKGKHFWAFRVEPYSYLVKVGVASSDKLQEWLRSPRDAVSPRYEQDSGHDSGSEDACFDSSQPFTLVTIGMQKFFIPKSPTSSNEPENRVLPMPTSIGIFLDCDKGKVDFYDMDQMKCLYERQVDCSHTLYPAFALMGSGGIQLEEPITAKYLEYQEDM", "values": [{"measurement": "stoichiometry N", "result": 2}]}]}
